Assay results from PMC9880023.

Target: HA-NRX1βS4(−), expressed on COS-7 cells
Assay: cell-based competitive binding assay (fluorescence microscopy); COS-7 cells expressing HA-NRX1βS4(−); biotin-AβOs fixed at 100 nM monomer equivalent, SorCS1-Fc varied 0–1,500 nM; 1 h at 4°C

B1: SorCS1 ectodomain tagged with human immunoglobulin Fc region (SorCS1-Fc) (Fc fusion)
chain: SLSCCPPQHPSSTPRRTLTPRGFPHPGPLGRAPATPPPLFMRPLFAVAPGDRALFLERAGGSRVSVATAARSGRRRRSGTEPEKIEPGEGASRSRRDMLKDGGQQGLGTGARDPGKATRFRMEELRLTSTTFALTGDSAHNQAMVHWSGHNSSVILILTKLYDYNLGSITESSLWRSTDYGTTYEKLNDKVGLKTILSYLYVCPTNKCKIMLLTDPEIESSLLISSDEGATYQKYRLNFYLQSLLFHPKQEDWILAYSQDQKLYSSAEFGRRWQLIQESVVPNRFYWSVMGSSKEPDLVHLEARTVDGHSIYLTCRMQNCTEANRNKPFPGYIDPDSLIVQDDYVFVQLTSGGRPHYYVSYRRSPFAQMKLPKYALPKDMHVISTDENQVFAAVQEWNQNDTYNLYISDTRGVYFTLALENVRSSRGPEGNVMIDLYEVAGIKGMFLANKKIDNQVKTFITYNKGRDWRLLQAPDADLRGDPVHCLLPYCSLHLHLKVSENPYTSGIIASRDTAPSIIVASGNIGSELSDSDISMFVSSDAGNTWRQIFEEEHSILYLDQGGVLVAMKHTSLPIRHLWLSFDEGRSWSKYSFTSIPLFVDGVLGEPGEETLIMTVFGHFSHRSEWQLVKVDYKSIFDRRCAEEDYRPWQLHSQGEACIMGAKRIYKKRKSERKCMQKYAGAMESEPCVCTEADFDCDYGYERHSNGQCLPAFWFNPSSLSKDCSLGQSYLNSAGYRKVVSNNCTDGVREQYTAKPQKCPGKAPRGLRIVTADGKLTAEQGHNVTLMVQLEEGDVQRTLIQVDFGDGIAVSYVNLSSMEDGIKHVYQNVGIFRVTVQVDNSLGSDSAVLYLHVTCPLEHVHLSLPFVTTKNKEVNATAVLWPSQVGTLTYVWWYGNNTEPLITLEGSISFKFTSEGMNTITVQVSAGNAILQDTKTIAVYEEFRSLRLAFSPNLDDYNPDIPEWRRDISRVIKKSLVEATGIPSQHILVAVLPGLPTAAELFVLPYQDGTRENKRSPEDLEQISEVLIHKLNQNLVHFELKPGVQVLVHAAHLTAAPLVDLTPTHS
- IC50: 0.0928 µM
